This assay addresses 生物素标记的抗原多肽 (biotin-labelled human collagen IV α1 chain peptide, synthesised by GenScript) (human). In words: BLI (Fortebio Octet); biotinylated peptide on SA biosensor, antibody at 100-1.56 nM. (In general: Biolayer interferometry detects binding as a change in optical thickness at a sensor tip.)

B1: 8A12D2-2 (antibody, V domains shown)
VH: EVQLQQSGAELVKPGASVKLSCTASGFNIKDHYMHWVKQRTKQGLEWIGRIDPEDGKTNSAPEFQDKATITSDISSNTVYLQLYSLTSEDTAVYYCAYSNFGFAYWGRGTLVTVSA
VL: DIVMTQAAFSNPVTLGTSTSISCRSSRSLLHSNGITYLYWYLQKPGQSPQLLIYQMSSLASGVPDRFSANGSGTDFTLRISRVEAEDVGVYYCAQKLGLPYTFGGGTKLEIK
What is called Kd is the equilibrium constant for the complex coming apart. A low value points to a tighter complex. The molecule B1 displayed a Kd of 376 pM.

(Values after patent publication CN116574180A.)
